According to publication PMC2602781:

Columns and labels:
[1] = target: I-Vdi141I … homing endonuclease, wild type (Vulcanisaeta distributa strain IC-141); test: SEC
[2] = target: T1, I-Vdi141I I65M/I107M (selenomethionyl) (V. distributa strain IC-141, UniProt Q6L703 1-169, I65M;I107M); test: X-ray crystallography
T1 sequence: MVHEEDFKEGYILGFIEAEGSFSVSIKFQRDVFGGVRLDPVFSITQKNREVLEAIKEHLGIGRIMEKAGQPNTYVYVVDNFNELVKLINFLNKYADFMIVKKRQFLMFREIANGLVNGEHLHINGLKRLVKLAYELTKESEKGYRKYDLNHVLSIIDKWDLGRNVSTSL

Molecule	stoichiometry N [1]	binding result [2]
I-Vdi141I … homing endonuclease, wild type (enzyme)	2	
22 bp I-Vdi141I target site duplex (dsDNA) DNA 1: CTGACTCTCTTAAGGTAGCCAA DNA 2: TTGGCTACCTTAAGAGAGTCAG		binds
